# Reference: IntAct's records for PubMed 16980972
# Molecular target: asf1a_human ASF1A (UniProt Q9Y294)
# Sequence (Q9Y294 whole entry): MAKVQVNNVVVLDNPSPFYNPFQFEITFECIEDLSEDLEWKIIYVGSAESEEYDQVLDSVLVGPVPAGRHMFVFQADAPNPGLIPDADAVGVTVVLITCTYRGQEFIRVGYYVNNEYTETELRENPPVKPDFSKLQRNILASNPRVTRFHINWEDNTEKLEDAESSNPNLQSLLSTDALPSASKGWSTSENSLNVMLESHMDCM
substance,measurement,value
Chromatin assembly factor 1 subunit B (Homo sapiens) (from UniProt Q13112) R483A;R499A,effect of a mutation on the interaction,disrupting interaction
